Experimental findings from article PMC5345856, “Suppressor of rid1 (SID1) shares common targets with RID1 on florigen genes to initiate floral transition in rice” are described below.

The labels stand for the following.
T1: RID1 (Oryza sativa (rice), UniProt B1B534 1-475)
T1 sequence: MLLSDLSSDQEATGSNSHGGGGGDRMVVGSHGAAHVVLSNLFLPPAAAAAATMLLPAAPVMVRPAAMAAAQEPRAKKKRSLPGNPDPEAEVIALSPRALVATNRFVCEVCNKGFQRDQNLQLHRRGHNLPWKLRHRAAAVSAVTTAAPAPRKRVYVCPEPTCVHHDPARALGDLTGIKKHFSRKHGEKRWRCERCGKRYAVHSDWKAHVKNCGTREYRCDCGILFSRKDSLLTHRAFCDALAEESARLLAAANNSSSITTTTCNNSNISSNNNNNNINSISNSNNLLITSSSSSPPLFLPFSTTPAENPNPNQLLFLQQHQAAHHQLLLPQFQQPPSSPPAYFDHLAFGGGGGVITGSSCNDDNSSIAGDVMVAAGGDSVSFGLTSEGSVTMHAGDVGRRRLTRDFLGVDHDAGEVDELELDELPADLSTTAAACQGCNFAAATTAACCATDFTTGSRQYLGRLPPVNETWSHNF

B1: bio-Hd3a (dsDNA)
DNA 1: CTTATCTTGCCCGGACAAATCGAGCTAAGCAA
DNA 2: TTGCTTAGCTCGATTTGTCCGGGCAAGATAAG
B2: bio-Hd3a-M (dsDNA)
DNA 1: B1 DNA 1 with C16T, A17T
DNA 2: B1 DNA 2 with T16A, G17A
B3: bio-RFT1 (dsDNA)
DNA 1: ATAACGTTTGACCATTTGTCTTATTAAATATATATATAAA
DNA 2: TTTATATATATATTTAATAAGACAAATGGTCAAACGTTAT
B4: bio-RFT1-M (dsDNA)
DNA 1: B3 DNA 1 with T17A, G18A
DNA 2: B3 DNA 2 with C23T, A24T

Substitutions are numbered along the chain they refer to.

The target of this series is T1, RID1. Briefly: EMSA; 10 uM ZnCl2; 10 mM Tris (pH not stated), 50 mM KCl, 10 uM ZnCl2, 1 mM DTT, 1 ug/ul poly(dI-dC), 0.1% BSA, 2.5% glycerol, 0.05% NP-40; 50 fmol probe; 30 min on ice; 6% native PAGE. Particulars: protein: recombinant; tags: His (pET-32a; vector Trx fusion not mentioned); label: 5' biotin; blunt.
As for B1, the binding result is reported as “binds”.

With B2, the binding result was “no binding”.

With B3, the binding result is reported as “binds”.

In the case of B4, the binding result was “no binding”.
